According to patent US20030077318A1:

Legend:
[1] = biological target: T1, soluble H-2K^b (K^bsol), heterodimer of truncated K^b heavy chain and murine β-2 microglobulin, purified empty from Drosophila cells (murine), P01901; assay: competitive RIA against [^125I]VSV-8 on K^bsol
T1 chain 1: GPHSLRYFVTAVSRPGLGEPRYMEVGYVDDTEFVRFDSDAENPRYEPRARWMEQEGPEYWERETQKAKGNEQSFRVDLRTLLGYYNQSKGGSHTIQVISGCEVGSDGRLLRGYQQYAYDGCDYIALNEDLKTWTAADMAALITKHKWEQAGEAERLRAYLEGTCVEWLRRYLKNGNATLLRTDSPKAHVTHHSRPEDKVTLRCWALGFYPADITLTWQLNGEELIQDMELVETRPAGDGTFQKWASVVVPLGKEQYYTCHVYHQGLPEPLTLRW
T1 chain 2: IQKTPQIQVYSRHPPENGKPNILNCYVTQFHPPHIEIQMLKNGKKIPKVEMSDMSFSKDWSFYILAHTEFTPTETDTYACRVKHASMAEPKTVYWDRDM

[2] = biological target: T1, soluble H-2K^b (K^bsol), heterodimer of …; assay: competitive RIA against [^125I]VSV-8 on K^bsol, P30 gel filtration, 23° C.

## EQLESIINFEKLTEWTSSNVMEER (modifications not checked) [OVA-24]
[1]
  fold lower affinity than OVA-8: > 10000 fold
[2]
  Kd: 71 µM
